Test results published in publication PMC11767649.

Assays:
[1] = molecular target: T1, recombinant human RKIP (rhRKIP) wild type, histidine-tagged (human), P30086; assay: LC Q-TOF mass spectrometry; purified rhRKIP WT and mutant proteins in buffer at pH 7.4; peaks around 22 kDa (monomer) and 44 kDa (dimer); settings: remark: other sources report otherwise
[2] = molecular target: T1, recombinant human RKIP (rhRKIP) wild …; assay: non-reducing SDS-PAGE; purified rhRKIP in sample loading buffer without β-mercaptoethanol or boiling; Coomassie Brilliant Blue staining or anti-His immunoblot; settings: remark: other sources report otherwise

B1: recombinant human RKIP (rhRKIP) wild type, histidine-tagged, P30086 1-187 (natural protein)
chain: MPVDLSKWSGPLSLQEVDEQPQHPLHVTYAGAAVDELGKVLTPTQVKNRPTSISWDGLDSGKLYTLVLTDPDAPSRKDPKYREWHHFLVVNMKGNDISSGTVLSDYVGSGPPKGTGLHRYVWLVYEQDRPLKCDEPILSNRSGDHRGKFKVASFRKKYELRAPVAGTCYQAEWDDYVPKLYEQLSGK
A stoichiometry N [1] of 2 and a stoichiometry N [2] of 2 were found for B1 in this work.
